# From the supplement of paper PMC6757056
# ± gives the standard deviation of the averaged measurements.
# B1: library; a variant is named by its letters at N, in order (parent)
# chain: GCUGUCACCGGUGCUUGGUACGUUAUAUUCAGCCGGUCUGAUGAGUCUNNNNNNAGACGAAACAGC
# Tests used:
# [1] = variants of: B1; assay: FACS-Seq fitted mean relative fluorescence mCherry/BFP without ligand (log10 relative fluorescence); HEK293T overexpressing SLC46A1; higher = higher reporter protein expression; details: without (6R,S)-folinic acid; ligand present: no
# How it was run: (§1)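 Cells were sorted into 6 bins on the mCherry/BFP ratio after 48 h with or without ligand. These were enriched HEK293T cells transduced by lentivirus with a ribozyme-switch mCherry reporter plus an EF1α-BFP marker. Fluorescence was obtained by fitting a normal distribution to sequencing-derived bin counts. Counts came from MiSeq sequencing of PCR-amplified, barcoded genomic DNA, binned by log10(mCherry/BFP), with means scaled to five spiked-in control ribozymes.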
# [2] = variants of: B1; assay: normalized RNA/DNA level without ligand (relative to sTRSVctl = 100) (log10 (% of sTRSVctl)); HEK293T overexpressing SLC46A1; higher = less ribozyme self-cleavage, higher mRNA level; details: without (6R,S)-folinic acid; ligand present: no
# How it was run: (§2)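 Total RNA, extracted with EDTA 72 h after HEK293T cells were transfected with 4 µg per 6-well well of reporter-linked ribozyme switch library plasmids, was reverse-transcribed, amplified, barcoded and sequenced. Ligand, if used, was added 1 h before transfection. RNA level was derived from RNA reads divided by DNA reads and normalized to a spiked-in non-cleaving sequence or to the top sequences. This was multiplied by 100 and log10-transformed, with the top set of 25 sequences and a ≥100 DNA read minimum.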
# [3] = variants of: B1; assay: FACS-Seq fitted mean relative fluorescence mCherry/BFP with ligand (log10 relative fluorescence); HEK293T overexpressing SLC46A1; ligand concentration (+) FACS-Seq: 6 mM; higher = higher reporter protein expression; details: with (6R,S)-folinic acid; ligand present: yes
# How it was run: as §1
# [4] = variants of: B1; assay: normalized RNA/DNA level with ligand (relative to sTRSVctl = 100) (log10 (% of sTRSVctl)); HEK293T overexpressing SLC46A1; ligand concentration (+) RNA-Seq: 6 mM; higher = less ribozyme self-cleavage, higher mRNA level; details: with (6R,S)-folinic acid; ligand present: yes
# How it was run: as §2
Variant,FACS-Seq fitted mean (log10) [1],normalized RNA/DNA level without ligand (log10) [2],FACS-Seq fitted mean (log10) [3],normalized RNA/DNA level with ligand (log10) [4]
GGGUUG,0.344 ± 0.19,2.037 ± 0.0021,0.56 ± 0.17,2.05 ± 0.049
UGGUUG,0.266 ± 0.011,1.829 ± 0.014,0.626 ± 0.09,1.98 ± 0.015
AGGUUU,0.323 ± 0.15,2.003 ± 0.012,0.561 ± 0.075,2.0283 ± 0.00022
CGUAAA,0.203 ± 0.0032,1.956 ± 0.0076,0.334 ± 0.32,1.977 ± 0.017
GGUAAA,0.462 ± 0.11,1.979 ± 0.014,0.474 ± 0.38,2 ± 0.03
UGUAAA,0.596 ± 0.02,1.924 ± 0.0087,0.761 ± 0.19,1.993 ± 0.0085
AGUAAA,0.22 ± 0.14,1.954 ± 0.013,0.344 ± 0.14,1.98 ± 0.041
GGUAAG,0.539 ± 0.082,1.919 ± 0.0032,0.424 ± 0.051,2 ± 0.036
UGUAAG,0.295 ± 0.0061,1.666 ± 0.0027,0.624 ± 0.062,1.94 ± 0.033
CGUAAU,0.544 ± 0.015,1.93 ± 0.029,0.552 ± 0.14,1.96 ± 0.022
GGUAAU,0.342 ± 0.044,1.992 ± 0.015,0.504 ± 0.12,2.03 ± 0.043
UGUAAU,0.41 ± 0.068,1.886 ± 0.0076,0.35 ± 0.072,1.994 ± 0.0024
GGUACA,-0.547 ± 0.083,2.066 ± 0.0024,-0.647 ± 0.18,2.07 ± 0.036
AGUACG,0.0935 ± 0.062,1.935 ± 0.0077,-0.00576 ± 0.14,2.03 ± 0.045
UGUACU,0.366 ± 0.027,1.99 ± 0.026,0.253 ± 0.17,2.021 ± 0.0023
UGUAGC,0.389 ± 0.16,1.907 ± 0.01,0.362 ± 0.049,1.988 ± 0.016
UGUAGG,0.342 ± 0.083,1.61 ± 0.018,0.855 ± 0.1,1.92 ± 0.033
GGUAGU,0.312 ± 0.15,1.988 ± 0.0021,0.316 ± 0.16,2.01 ± 0.055
CGUAUA,0.0787 ± 0.09,1.93 ± 0.025,0.189 ± 0.17,1.983 ± 0.016
GGUAUA,0.316 ± 0.031,1.987 ± 0.0071,0.271 ± 0.15,2 ± 0.032
UGUAUC,-0.0452 ± 0.058,2.016 ± 0.019,-0.247 ± 0.051,1.99 ± 0.028
GGUAUG,0.288 ± 0.015,1.986 ± 0.01,0.241 ± 0.14,2.01 ± 0.021
UGUAUG,-0.0525 ± 0.085,1.707 ± 0.007,0.265 ± 0.086,1.96 ± 0.039
AGUAUG,0.41 ± 0.013,1.89 ± 0.022,0.586 ± 0.1,1.994 ± 0.019

Variant,FACS-Seq fitted mean (log10) [1],normalized RNA/DNA level without ligand (log10) [2],FACS-Seq fitted mean (log10) [3],normalized RNA/DNA level with ligand (log10) [4]
CGUAUU,-0.147 ± 0.033,2.034 ± 0.011,0.0205 ± 0.0068,2.03 ± 0.037
UGUAUU,0.438 ± 0.16,1.9737 ± 0.0017,0.253 ± 0.086,2.01 ± 0.032
AGUCAA,0.156 ± 0.066,1.962 ± 0.0074,0.225 ± 0.046,1.96 ± 0.053
GGUCCA,0.532 ± 0.025,2.029 ± 0.0028,0.724 ± 0.15,2.01 ± 0.07
UGUCCA,0.433 ± 0.12,2.02 ± 0.025,0.395 ± 0.04,2.024 ± 0.014
AGUCGA,0.3437 ± 0.0018,1.974 ± 0.012,0.506 ± 0.09,2.021 ± 0.0067
UGUCGG,0.0192 ± 0.057,1.66 ± 0.015,0.166 ± 0.29,1.94 ± 0.043
UGUCGU,0.152 ± 0.076,1.95 ± 0.012,0.267 ± 0.017,2 ± 0.021
AGUCGU,0.209 ± 0.14,1.979 ± 0.013,-0.0314 ± 0.084,2.03 ± 0.029
CGUCUA,-0.111 ± 0.073,2.0035 ± 0.0014,0.325 ± 0.29,2.033 ± 0.0082
CGUCUC,0.692 ± 0.063,2.06 ± 0.013,0.48 ± 0.48,1.996 ± 0.015
UGUCUG,0.171 ± 0.096,1.73 ± 0.02,0.451 ± 0.14,1.96 ± 0.047
CGUGAA,0.328 ± 0.19,1.9509 ± 0.0012,0.192 ± 0.33,2.01 ± 0.028
UGUGAA,0.186 ± 0.034,1.899 ± 0.015,0.243 ± 0.25,1.984 ± 0.012
CGUGAC,0.241 ± 0.037,2.015 ± 0.01,0.201 ± 0.09,1.99 ± 0.052
GGUGAC,0.359 ± 0.087,2.027 ± 0.008,0.217 ± 0.074,2.01 ± 0.037
UGUGAG,0.269 ± 0.082,1.6 ± 0.0064,0.649 ± 0.03,1.906 ± 0.0071
GGUGAU,0.294 ± 0.15,2.015 ± 0.013,0.491 ± 0.23,2.028 ± 0.018
AGUGAU,0.213 ± 0.04,1.972 ± 0.016,0.178 ± 0.14,1.996 ± 0.0024
GGUGCA,0.256 ± 0.027,2.037 ± 0.017,0.204 ± 0.17,2.04 ± 0.032
UGUGCG,0.0533 ± 0.02,1.657 ± 0.011,0.442 ± 0.14,1.96 ± 0.05
GGUGCU,-0.205 ± 0.13,2.005 ± 0.017,0.149 ± 0.25,2.01 ± 0.046
UGUGCU,0.259 ± 0.17,2.024 ± 0.011,0.414 ± 0.076,2.07 ± 0.03
CGUGGA,0.378 ± 0.16,1.988 ± 0.014,0.668 ± 0.33,2.02 ± 0.043

Variant,FACS-Seq fitted mean (log10) [1],normalized RNA/DNA level without ligand (log10) [2],FACS-Seq fitted mean (log10) [3],normalized RNA/DNA level with ligand (log10) [4]
GGUGGA,0.534 ± 0.074,2.054 ± 0.01,0.58 ± 0.079,2.06 ± 0.062
UGUGGA,-0.112 ± 0.058,1.816 ± 0.0017,0.123 ± 0.11,2 ± 0.027
AGUGGA,0.399 ± 0.14,1.963 ± 0.018,0.327 ± 0.082,2.015 ± 0.0071
UGUGGG,0.109 ± 0.02,1.6031 ± 0.0006,0.695 ± 0.086,1.96 ± 0.017
UGUGGU,0.0696 ± 0.063,1.89 ± 0.022,0.265 ± 0.0042,2 ± 0.054
UGUGUA,0.429 ± 0.1,1.895 ± 0.0065,0.399 ± 0.015,2.01 ± 0.021
UGUGUG,0.164 ± 0.26,1.591 ± 0.003,0.393 ± 0.24,1.94 ± 0.062
CGUUAA,0.362 ± 0.031,1.97 ± 0.016,0.486 ± 0.18,1.98 ± 0.025
UGUUAA,-0.0426 ± 0.13,1.92 ± 0.024,0.191 ± 0.081,1.98 ± 0.022
UGUUAC,0.317 ± 0.16,1.947 ± 0.018,0.39 ± 0.013,1.99 ± 0.021
GGUUAG,0.215 ± 0.017,1.982 ± 0.016,0.245 ± 0.13,2 ± 0.035
UGUUAG,0.447 ± 0.11,1.63 ± 0.04,0.762 ± 0.15,1.929 ± 0.016
GGUUAU,0.612 ± 0.021,1.989 ± 0.019,0.481 ± 0.077,1.98 ± 0.023
AGUUCA,0.161 ± 0.15,2.005 ± 0.006,-0.01 ± 0.41,2.008 ± 0.012
UGUUCC,0.382 ± 0.066,2.05 ± 0.023,0.146 ± 0.006,2.05 ± 0.062
GGUUGA,0.168 ± 0.043,2.083 ± 0.0081,-0.309 ± 0.06,2.07 ± 0.031
UGUUGA,0.32 ± 0.026,1.837 ± 0.015,0.463 ± 0.13,2.01 ± 0.035
AGUUGA,0.17 ± 0.13,1.964 ± 0.015,0.105 ± 0.028,2.018 ± 0.016
CGUUGC,0.557 ± 0.049,2.02 ± 0.025,0.358 ± 0.33,2.02 ± 0.047
GGUUGC,0.472 ± 0.12,1.932 ± 0.0076,0.388 ± 0.059,1.9808 ± 0.0018
AGUUGC,0.455 ± 0.088,2.001 ± 0.0034,0.705 ± 0.23,2.03 ± 0.016
UGUUGG,-0.0684 ± 0.078,1.53 ± 0.048,0.426 ± 0.024,1.88 ± 0.042
AGUUGU,0.3648 ± 0.0018,1.962 ± 0.012,0.521 ± 0.35,2.04 ± 0.028
GGUUUG,0.0685 ± 0.084,2.024 ± 0.0089,-0.1121 ± 0.00036,2.06 ± 0.025
